Legend:
Ng FA1090 NfsB = target: T1, Ng FA1090 NfsB (Neisseria gonorrhoeae, UniProt Q5F9K5); assay type: cell-based; conditions: 100 µg/mL chloramphenicol, MDG medium, 37°C; compared with empty vector
T1 construct: gene NGO_0388

[1] = system: O=C(N[C@H](CO)[C@H](O)c1ccc([N+](=O)[O-])cc1)C(Cl)Cl; assay: purified protein; conditions: apparent, 1 mM NADPH, 1 µM FMN, 50 mM Tris pH 8, ~23°C
[2] = system: NC(=O)C1=CN([C@@H]2O[C@H](COP(=O)(O)OP(=O)(O)OC[C@H]3O[C@@H](n4cnc5c(N)ncnc54)[C@H](OP(=O)(O)O)[C@@H]3O)[C@@H](O)[C@H]2O)C=CC1; assay: purified protein; conditions: apparent, 1 mM chloramphenicol, 1 µM FMN, 50 mM Tris pH 8, ~23°C

T1 sequence (Q5F9K5 1-221): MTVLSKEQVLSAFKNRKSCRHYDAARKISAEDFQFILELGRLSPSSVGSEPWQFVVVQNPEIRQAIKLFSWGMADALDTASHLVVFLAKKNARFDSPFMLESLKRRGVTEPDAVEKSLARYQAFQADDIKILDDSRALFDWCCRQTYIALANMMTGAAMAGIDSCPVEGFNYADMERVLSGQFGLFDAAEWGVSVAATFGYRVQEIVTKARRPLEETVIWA

| Compound | Bratton-Marshall assay of resting E. coli expressing nfsB (Ng FA1090 NfsB) | Km [1] | kcat [1] [s⁻¹] | kcat/Km [1] [M⁻¹ s⁻¹] | Km [2] [µM] | kcat [2] [s⁻¹] | kcat/Km [2] [M⁻¹ s⁻¹] |
| --- | --- | --- | --- | --- | --- | --- | --- |
| O=C(N[C@H](CO)[C@H](O)c1ccc([N+](=O)[O-])cc1)C(Cl)Cl [chloramphenicol] | Es. coli strains expressing H. influenzae or Neisseria nfsB genes showed robust signal |  |  |  |  |  |  |
| Hi 86-028NP NfsB (Haemophilus influenzae 86-028NP) |  | 200 ± 40 µM | 8.7 ± 0.9 | 44500 | 21 ± 2 | 9.9 ± 0.6 | 478000 |
| Hi KW20 NfsB (Haemophilus influenzae Rd KW20) |  | 260 ± 20 µM | 14 ± 0.3 | 55500 | 49 ± 6 | 13 ± 0.5 | 278000 |
| Nm Z2491 NfsB (Neisseria meningitidis Z2491) |  | 1,300 ± 800 μM | 8.9 ± 3 | 8120 | 22 ± 4 | 8.2 ± 0.3 | 388000 |

Reference: article PMC8941942, “Functional and Structural Characterization of Diverse NfsB Chloramphenicol Reductase Enzymes from Human Pathogens” (Microbiology Spectrum, 2022)
